A word on the stoichiometry N: it is a count of units in the complex or per binding partner. As usually defined, the Kd is a measure of binding affinity in units of concentration.

The target in data set [1] is Taxol-stabilised microtubules (porcine brain tubulin) (UniProt P02550). In words: microtubule co-sedimentation assay. As to conditions: parent: est. 0.90; read off a plot.
For data set [2], the target named is KKT4^101–352 (Trypanosoma brucei). In words: SEC-MALS; KKT4 fragments; 25 mM HEPES pH 7.5, 150 mM NaCl, 0.5 mM TCEP. Background: In gel filtration, larger molecules generally elute earlier.
Data set [3] concerns the target SNAP-6HIS-3FLAG-KKT4 (full-length T. brucei KKT4) (Trypanosoma brucei). In words: SEC-MALS; full-length SNAP-6HIS-3FLAG-KKT4 at lower concentrations; 25 mM HEPES pH 7.5, 340 mM NaCl, 0.5 mM TCEP.
For data set [4] the target is unchanged. Description: SEC-MALS; full-length SNAP-6HIS-3FLAG-KKT4 at higher concentrations; 25 mM HEPES pH 7.5, 340 mM NaCl, 0.5 mM TCEP; Superose 6 or Superdex 200 10/300.
Data set [5] has as its target KKT4^2–114 (Trypanosoma brucei). In words: SEC-MALS; KKT4 2-114 at higher concentrations; 25 mM HEPES pH 7.5, 150 mM NaCl, 0.5 mM TCEP.
Data set [6] has the same target. In words: SEC-MALS; KKT4 2-114 at lower concentrations; 25 mM HEPES pH 7.5, 150 mM NaCl, 0.5 mM TCEP.
For data set [7], the target named is Synthetic KKT8 phosphopeptide (BA_peptide_2 (DBS1831-1)) (T. brucei). In words: fluorescence polarisation; fluorescence anisotropy; KKT4 463-645 (from 170 μM, serially diluted 2:3) with 100 nM 5-FAM peptide probe; 25 mM HEPES pH 7.5, 50 mM NaCl, 0.5 mM TCEP; 30 min at room temperature. (Polarisation of emitted light reports the rotation of a fluorescent probe.)

In data set [8] the target is T1, KKT4 full-length (KKT4 2-645) (Trypanosoma brucei, UniProt Q580Y8 2-645).
T1 sequence: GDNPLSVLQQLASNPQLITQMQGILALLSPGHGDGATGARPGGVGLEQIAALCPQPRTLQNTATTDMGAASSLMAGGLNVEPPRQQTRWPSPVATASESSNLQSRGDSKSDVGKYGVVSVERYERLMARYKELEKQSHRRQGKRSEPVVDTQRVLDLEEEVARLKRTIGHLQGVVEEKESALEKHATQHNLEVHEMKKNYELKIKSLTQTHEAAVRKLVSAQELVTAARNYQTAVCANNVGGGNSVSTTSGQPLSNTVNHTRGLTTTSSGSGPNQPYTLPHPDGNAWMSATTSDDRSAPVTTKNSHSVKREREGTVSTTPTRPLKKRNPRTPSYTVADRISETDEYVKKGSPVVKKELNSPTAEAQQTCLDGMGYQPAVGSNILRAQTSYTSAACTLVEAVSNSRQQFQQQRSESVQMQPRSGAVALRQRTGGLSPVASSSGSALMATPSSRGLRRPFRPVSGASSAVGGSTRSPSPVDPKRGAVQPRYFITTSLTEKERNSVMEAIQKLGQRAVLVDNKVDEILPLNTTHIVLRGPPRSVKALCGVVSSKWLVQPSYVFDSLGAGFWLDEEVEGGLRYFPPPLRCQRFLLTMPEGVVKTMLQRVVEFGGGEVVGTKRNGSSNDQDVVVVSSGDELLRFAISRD
In words: fluorescence anisotropy; 1 nM DNA; 25 mM HEPES pH 7.5, 50 mM NaCl, 0.5 mM TCEP, 1 nM DNA, 30 min at room temperature. As to conditions: protein: recombinant; tags: SNAP-6HIS-3FLAG (pBA925; from Sf9); chain copies: 2; label: 5' 6-FAM; blunt (only one strand printed; 50-bp dsDNA).

Sequence of Taxol-stabilised microtubules (porcine brain tubulin) (P02550 whole entry, looked up, the tested form may be a part): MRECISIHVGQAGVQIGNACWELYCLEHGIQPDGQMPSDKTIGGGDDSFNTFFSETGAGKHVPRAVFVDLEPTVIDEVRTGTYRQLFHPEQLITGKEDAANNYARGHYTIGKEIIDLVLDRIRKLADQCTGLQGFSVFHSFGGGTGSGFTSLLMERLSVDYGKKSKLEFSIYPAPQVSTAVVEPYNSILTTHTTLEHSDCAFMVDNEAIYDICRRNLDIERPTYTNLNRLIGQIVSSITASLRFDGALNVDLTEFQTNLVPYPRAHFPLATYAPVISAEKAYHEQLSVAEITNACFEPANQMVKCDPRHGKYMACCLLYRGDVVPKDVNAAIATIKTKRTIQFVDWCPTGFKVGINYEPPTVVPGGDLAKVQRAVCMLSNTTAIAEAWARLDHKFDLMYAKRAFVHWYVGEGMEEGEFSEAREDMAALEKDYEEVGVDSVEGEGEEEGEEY

Regarding “KKT4^115–343 (microtubule-binding domain) K204E”, the other: fraction bound in data set [1] is 0.84. Still for that read-out and setting: under “KKT4^115–343 (microtubule-binding domain) R230D” stands 0.6; under “KKT4^115–343 (microtubule-binding domain) R217D”, 0.77. Same read-out and setting: under “KKT4^115–343 (microtubule-binding domain) K218E” stands 0.89. As for “KKT4^115–343 (microtubule-binding domain) K115E”, the other: fraction bound in data set [1] amounted to 0.67. Same read-out and setting: under “KKT4^115–343 (microtubule-binding domain) R123E” stands 0.23; under “KKT4^115–343 (microtubule-binding domain) R140D”, 0.48. Take “KKT4^115–343 (microtubule-binding domain) K136E”: the other: fraction bound in data set [1] is 0.43. Same read-out and setting: under “KKT4^115–343 (microtubule-binding domain) K206E” stands 0.85. On to KKT4^101–352 (domain or fragment), for which the stoichiometry N in data set [2] worked out at 2.

On to “KKT4^115–343 (microtubule-binding domain) R141D”, for which the other: fraction bound in data set [1] was 0.43. For “SNAP-6HIS-3FLAG-KKT4 (full-length T. brucei KKT4) (natural protein)”, the results for the stoichiometry N in data set [3] and in data set [4] were 2 and 4, respectively.

Take “KKT4^115–343 (microtubule-binding domain) K144E”: the other: fraction bound in data set [1] is 0.44. For “KKT4^115–343 (microtubule-binding domain) K132E”, in data set [1], the other: fraction bound amounted to 0.6. Same read-out and setting: under “KKT4^115–343 (microtubule-binding domain) R164D” stands 0.73; under “KKT4^115–343 (microtubule-binding domain) R167D”, 0.74. On the same count and under the same terms, under “KKT4^115–343 (microtubule-binding domain) K179E” stands 0.77; under “KKT4^115–343 (microtubule-binding domain) K198E”, 0.8. Consider KKT4^2–114 (domain or fragment), for which the stoichiometry N came out at 4 in data set [5] and 3 in data set [6].

As to “KKT4^115–343 (microtubule-binding domain) K154E”, the other: fraction bound in data set [1] came to 0.63. The same measure, in the same setting: under “KKT4^115–343 (microtubule-binding domain) R126D” stands 0.46. KKT4^463–645 K543A (domain or fragment) came in with a fold decrease of binding affinity against wild-type KKT4 BRCT in data set [7] of 10 fold. As to “KKT4^115–343 (microtubule-binding domain) R130D”, the other: fraction bound in data set [1] worked out at 0.6.

With “KKT4^115–343 (microtubule-binding domain) K166E”, the other: fraction bound in data set [1] came out at 0.85. Regarding “KKT4^115–343 (microtubule-binding domain) K199E”, the other: fraction bound in data set [1] was 0.78.

The molecule “KKT4^463–645 (KKT4 BRCT domain) (domain or fragment)” displayed a Kd in data set [7] of 30 µM. Consider “KKT4^115–343 (microtubule-binding domain) R145D”, for which the other: fraction bound in data set [1] was determined as 0.55.

B1: BA3098 50-bp CIR147 DNA probe (dsDNA)
DNA 1: CAATATGTAAGGTGTTTTGGTGTAAAACACGCATTCTTGCATAACATGCA
DNA 2: TGCATGTTATGCAAGAATGCGTGTTTTACACCAAAACACCTTACATATTG
As for B1, in data set [8], the Kd was 0.011 µM.

For the origin of these results see paper PMC8443799, “Structural characterization of KKT4, an unconventional microtubule-binding kinetochore protein”.
